{"source": "patent US7696205B2", "about": "“Cyclic derivatives as modulators of chemokine receptor activity” (Bristol-Myers Squibb Company, priority 2003, dated 2010)", "origin": "cited, not measured here", "molecules": {"B1": {"name": "interferon b-1b: effective therapy in human multiple sclerosis (protein, UniProt P01574 22-187, looked up, variant C17S)", "Interferon beta": "MSYNLLGFLQRSSNFQSQKLLWQLNGRLEYCLKDRMNFDIPEEIKQLQQFQKEDAALTIYEMLQNIFAIFRQDSSSTGWNETIVENLLANVYHQINHLKTVLEEKLEKEDFTRGKLMSSLHLKRYYGRILHYLKAKEYSHCAWTIVRVEILRNFYFINRLTGYLRN"}}, "tested_on": "MCP-1 expression in peripheral blood mononuclear cells", "details": "effective therapy in human multiple sclerosis", "data": [{"molecule": "B1", "values": [{"measurement": "effect on MCP-1 expression in peripheral blood mononuclear cells", "result": "reduces MCP-1 expression"}]}]}
